# Assay results reported in US20230304019, “DNA APTAMER, PHARMACEUTICAL COMPOSITION COMPRISING SAME, METHOD FOR INHIBITING CATALYTIC ABILITY OF TXNDC5, AND METHOD FOR PREVENTING OR TREATING ORGAN FIBROSIS” (CHI-HUA FUNDATION, published 2023).
# How the values were obtained:
# [1] = target: T1, TXNDC5 (Mus musculus, UniProt Q91W90 Q91W90:34-417); assay: magnetic nanoparticle (MARAS) pulldown with q-PCR, nonlinear regression; conditions: tags: Ni-column purified, baculovirus/insect cells, Sino Biological; double stem-loop (predicted)
# T1 sequence (Q91W90 34-417, one chain of several): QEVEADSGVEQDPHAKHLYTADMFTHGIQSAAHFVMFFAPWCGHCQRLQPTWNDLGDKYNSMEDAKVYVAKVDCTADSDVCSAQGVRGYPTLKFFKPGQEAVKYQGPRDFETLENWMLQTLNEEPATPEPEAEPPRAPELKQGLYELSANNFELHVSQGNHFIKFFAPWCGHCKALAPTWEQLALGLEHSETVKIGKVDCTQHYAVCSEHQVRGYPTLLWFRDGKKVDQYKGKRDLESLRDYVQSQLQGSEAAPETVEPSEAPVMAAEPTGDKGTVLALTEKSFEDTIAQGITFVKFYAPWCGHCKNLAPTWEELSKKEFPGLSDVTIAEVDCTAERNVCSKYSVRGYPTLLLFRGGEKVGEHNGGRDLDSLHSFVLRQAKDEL
# Procedure: (§1) For further determining the binding efficiency of TXNDC5-targeting aptamers, the Kd values, as the indicator of aptamer and target molecule interaction, of aptamer-3 and aptamer-7 are measured by q-PCR, and the results were fitted with nonlinear regression. The method of measuring the Kd values of aptamer-3 and aptamer-7 is illustrated as following.
# (§2) Aptamer-3 and aptamer-7 are isolated and progressively diluted in series from 100 to 3.125 nM, aptamer-3 and aptamer-7 are folded in the binding buffer as the procedures mentioned above. Equal amounts of either mouse-MNPs or humane-MNPs are mixed with aptamer-3 and aptamer-7 and followed the MARAS and q-PCR procedure as described above to specifically bind to aptamer-3 and aptamer-7. The Kd values of aptamer-3 and aptamer-7 are measured by fitting the results of each Ct value from q-PCR and the concentrations in a nonlinear regression through PRISM 8 (Graphpad). Each result is performed in duplicate to reduce the errors.
# [2] = target: T2, TXNDC5 (wild type) (Homo sapiens, UniProt Q8NBS9 Q8NBS9:33-432); assay: inhibition; insulin reduction turbidity assay, 0.5 mM DTT, potassium phosphate, EDTA, pH 7; conditions: tags: Ni-column purified, baculovirus/insect cells, Sino Biological
# T2 sequence (Q8NBS9 33-432, one chain of several): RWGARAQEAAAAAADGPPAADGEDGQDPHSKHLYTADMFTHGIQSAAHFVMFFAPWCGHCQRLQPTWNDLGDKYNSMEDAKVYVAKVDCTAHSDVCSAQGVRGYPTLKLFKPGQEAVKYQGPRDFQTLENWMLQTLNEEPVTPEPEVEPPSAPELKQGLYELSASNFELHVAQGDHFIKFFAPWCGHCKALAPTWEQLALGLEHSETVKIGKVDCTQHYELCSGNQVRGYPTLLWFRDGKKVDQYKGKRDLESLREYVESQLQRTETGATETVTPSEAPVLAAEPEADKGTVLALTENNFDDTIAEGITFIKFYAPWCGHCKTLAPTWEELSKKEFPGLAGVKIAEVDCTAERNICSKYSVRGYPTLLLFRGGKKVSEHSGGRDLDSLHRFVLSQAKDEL
# Procedure: An insulin/assay buffer is prepared by adding 1.6 mM insulin (which is prepared by dissolving insulin in 0.1 N HCl) with the assay buffer consisted of 100 mM potassium phosphate and 0.2 mM EDTA (pH 7). The volume of each insulin/assay buffer is 15 μl, wherein the volume of insulin is 6 μl and the volume of assay buffer is 9 μl.
# Each of the above mixtures of aptamers (Ap-3, Ap7 and Ap-11) with different concentrations and human wild type TXNDC5 is added with a corresponding insulin/assay buffer separately. That is, aptamer-3, aptamer-7 and aptamer-11 have seven experimental group samples (with different concentrations, 7.8125 μM, 15.625 μM, 31.25 μm, 62.5 μM, 125 μM, 250 μM and 500 μM) separately. An insulin/assay buffer which is not added with the above mixture of aptamers and human wild type TXNDC5 is prepared as the control group sample.
# [3] = target: T1, TXNDC5; assay: q-PCR of eluted aptamer; specific and strong binding to mouse TXNDC5; conditions: tags: Ni-column purified, baculovirus/insect cells, Sino Biological; single stem-loop (predicted)
# Procedure: The 100 nM of aptamer-3, aptamer-7 and aptamer-11 are folded in the binding buffer via the procedures as mentioned above. 20 nM of Aptamer-3, aptamer-7 and aptamer-11 are taken individually and hybridized with positive-(mouse and human TXNDC5, 5 μl) and negative-(serum and catalytic-death TXNDC5, 5 μl) MNPs, and the hybridized aptamers-MNPs are processed according to the above MARAS procedures. Aptamer-3, aptamer-7 and aptamer-11 bound with MNPs are collected and eluted by heating to 95° C. for 5 min in 100 μl ddH₂O.
# The amounts of aptamer-3, aptamer-7 and aptamer-11 are detected by q-PCR and the relative expression levels are utilized as outcomes. The process of detecting the amounts of aptamer-3, aptamer-7 and aptamer-11 by q-PCR is set forth as following. To measure the relative expression of aptamer-3, aptamer-7 and aptamer-11, the q-PCR is performed in 96-well plates with BioRad CFX Connect system. The fivefold-diluted eluted aptamer-3, aptamer-7 and aptamer-11 are individually dissolved in test tubes filled with 100 μl of RNase-free water. […]
# [4] = target: T2, TXNDC5 (wild type); assay: magnetic nanoparticle (MARAS) pulldown with q-PCR, nonlinear regression; conditions: tags: Ni-column purified, baculovirus/insect cells, Sino Biological; double stem-loop (predicted)
# Procedure: as §1, §2
Binder,Kd [1] [µM],IC50 ([2]; double stem-loop (predicted)) [µM],binding result [3],IC50 ([2]; single stem-loop (predicted)) [µM],Kd [4] [µM]
AGCAGCACAGAGGTCAATGTAATCTTTATCTATCGGCGTGCTACCGTGAA (ssDNA) [Aptamer-3],0.0075,214,,,
AGCAGCACAGAGGTCTCTTATTACTCTCCCGTACCGCGTGCTACCGTGAA (ssDNA) [Aptamer-11],,,binds,263,
AGCAGCACAGAGGTCAGGAACCTTATGCCTATGTAGCGTGCTACCGTGAA (ssDNA) [Aptamer-7],,241,,,0.0169
